One molecule from patent publication US20030180282A1, “Method of treatment of thrombotic events” (priority 2002, published 2003) can be followed below.

The test has as its system platelets. The test is described as follows: in vitro whole blood flow cytometry of platelet receptors and platelet-monocyte aggregates. In kind it is cell-based, human. The conditions noted are these: TNK 12 μg/mL, t-PA 4 μg/mL. As for the experimental part:
Blood samples for the in vitro study were obtained from 9 healthy volunteers. None of the subjects smoked or had hypertension, diabetes, or an abnormal hematocrit. None had received aspirin or any other antiplatelet drugs. All subjects underwent blood sampling after at least 30 minutes of rest and 2 or more hours of fasting. Blood was drawn from an antecubital vein between 8 am and 10 am in order to avoid any diurnal influence. A 21-gauge butterfly needle was used to draw blood into a tube containing 3.8% sodium citrate (1:9 volume); the first 1.5 mL of free running blood was discarded. One tube was kept as an internal control. A second tube was incubated with tenecteplase (TNK) for 30 minutes at room temperature in order to achieve a final concentration of 12 μg/mL. The third tube was similarly incubated with alteplase (t-PA) to achieve a concentration of 4 μg/mL. The concentrations of TNK and t-PA that were chosen approximated conventional plasma levels observed in patients receiving TNK and t-PA bolus (30 mg, and 15 mg, respectively; data on file, Genentech, Inc., South San Francisco, Calif.). Fresh solutions of TNK and t-PA were prepared in Dulbecco's phosphate buffered saline (DPBS) ex tempore on the morning of the platelet studies.
The surface expression of platelet receptors was determined by flow cytometry by using the following monoclonal antibodies: CD 41 (glycoprotein [GP] IIb/IIIa, α IIbβ3) CD 42b (GP Ib), CD 62p (P-selectin), CD 51/CD 61 (αvβ3, or vitronectin receptor), CD 31 (platelet endothelial cell adhesion molecule [PECAM]-1), CD 107a (LAMP-1), CD 107b (LAMP-2), CD 63 (LIMP or LAMP-3), and CD 151 (PETA-3) (PharMingen, San Diego, Calif.). Platelet-leukocyte interactions were assessed by using dual antibodies for a pan-platelet marker (CD 41), together with CD 14, a monocyte/macrophage marker. The blood-citrate mixture (50 μl) was diluted with 450 μl Tris buffered saline (TBS) (10 mmol/L Tris, 0.15 mol/L sodium chloride) and mixed by gently inverting an Eppendorf tube 2 times. The corresponding antibody was then added (5 μl) and incubated at 4° C. for 30 minutes. After incubation, 400 μl of 2% buffered paraformaldehyde was added for fixation. The samples were analyzed on a Becton Dickinson FACScan flow cytometer set up to measure fluorescent light scatter, as previously described. All parameters were collected by using 4-decade logarithmic amplification. The data were collected in list mode files and then analyzed. P-selectin was expressed as percent positive cells. Other antigens were expressed as log mean fluorescence intensity.
For all comparisons, statistical analyses were done by using repeated measures ANOVA. Post hoc comparison was performed by use of the Bonferroni t-test to identify specific differences in platelet aggregation and receptor expression between patients treated with TNK and t-PA, and controls. The Mann-Whitney U test was used to analyze non-parametric data. Normally distributed data were expressed as mean±SE, and skewed data as median (range). Probability values of P<0.05 were regarded as statistically significant. Linear regression analysis was applied to normally distributed data for all study participants by using the Statview 4.1 program for analysis.
In general terms: Flow cytometry measures light scatter and fluorescence of single cells or particles in a stream.

B1: t-PA: recombinant tissue plasminogen activator, thrombolytic agent (Genentech) (protein, UniProt P00750 36-562, looked up)
Tissue-type plasminogen …: SYQVICRDEKTQMIYQQHQSWLRPVLRSNRVEYCWCNSGRAQCHSVPVKSCSEPRCFNGGTCQQALYFSDFVCQCPEGFAGKCCEIDTRATCYEDQGISYRGTWSTAESGAECTNWNSSALAQKPYSGRRPDAIRLGLGNHNYCRNPDRDSKPWCYVFKAGKYSSEFCSTPACSEGNSDCYFGNGSAYRGTHSLTESGASCLPWNSMILIGKVYTAQNPSAQALGLGKHNYCRNPDGDAKPWCHVLKNRRLTWEYCDVPSCSTCGLRQYSQPQFRIKGGLFADIASHPWQAAIFAKHRRSPGERFLCGGILISSCWILSAAHCFQERFPPHHLTVILGRTYRVVPGEEEQKFEVEKYIVHKEFDDDTYDNDIALLQLKSDSSRCAQESSVVRTVCLPPADLQLPDWTECELSGYGKHEALSPFYSERLKEAHVRLYPSSRCTSQHLLNRTVTDNMLCAGDTRSGGPQANLHDACQGDSGGPLVCLNDGRMTLVGIISWGLGCGQKDVPGVYTKVTNYLDWIRDNMRP
For the molecule B1, the “expression of PECAM-1 compared with saline-treated samples” value is listed as “trend toward diminished expression”, the “expression of glycoprotein IIb/IIIa compared with saline-treated samples” value is reported as “reduced expression” and the “formation of platelet-monocyte aggregates compared with saline-treated samples” value was “trend toward diminished”.
